The values below come from patent CN115819568A.

For this assay, the target named is EV A71病毒样颗粒(VLP) (Enterovirus A71). The experiment in a line: sandwich ELISA: rabbit anti-EV A71 VLP serum as capture, VLP titrated, antibody 1.2 ng/ul as detector, positive at OD450>0.15. A general note: ELISA stands for enzyme-linked immunosorbent assay.

B1: 肠道病毒A71单克隆抗体 1G10 (antibody, V domains shown)
VH: EVKLVESGGGLVKPGGSLKLSCAASGFTFSSYVMSWVRQTPEKRLEWVASISNGGSTFYPDSVKGRLTISRDNARNILYLQMSSLRSEDTAMYYCARAYGNDWYFDVWGAGTTVTVSS
VL: DIQMTQTTSSLSASLGDRVTISCRASQDISNYLNWYQQKPDGTVKLLIYYTSRLNSGVPSRFSGSGSGTDYSLTISNLEEEDIATYFCQQGNTAWTFGGGTKLEIKR
The molecule B1 gave a 最低检出限度 of 3.12 ng/mL.
